Test results as given in patent US20230151111A1 (AKESO BIOPHARMA, published 2023).

T1: human NT5E-Biotin (human, UniProt P21589 27-552, limits assumed, biotin label, site not stated)
T1 construct: Captured on streptavidin-coated plates; also called human NTSE-Biotin
T1 sequence (looked up): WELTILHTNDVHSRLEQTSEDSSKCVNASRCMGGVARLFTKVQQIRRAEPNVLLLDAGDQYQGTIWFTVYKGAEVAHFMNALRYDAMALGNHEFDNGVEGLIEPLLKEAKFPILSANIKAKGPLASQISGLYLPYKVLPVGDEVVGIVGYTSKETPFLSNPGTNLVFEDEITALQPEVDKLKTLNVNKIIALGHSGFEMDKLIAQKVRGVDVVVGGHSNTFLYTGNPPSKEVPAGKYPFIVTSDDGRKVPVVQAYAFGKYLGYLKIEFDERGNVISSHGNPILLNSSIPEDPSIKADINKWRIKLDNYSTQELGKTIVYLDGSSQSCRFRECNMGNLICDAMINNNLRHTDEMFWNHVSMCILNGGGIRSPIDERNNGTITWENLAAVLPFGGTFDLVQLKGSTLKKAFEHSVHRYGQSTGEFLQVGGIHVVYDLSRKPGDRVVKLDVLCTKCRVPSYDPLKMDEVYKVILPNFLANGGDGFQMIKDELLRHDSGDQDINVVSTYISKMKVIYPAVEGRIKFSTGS


Legend:
[1] = molecular target: T2, PD-1 on 293T-PD1 cell surface (human, UniProt Q15116 25-288); assay: flow cytometry, 293T-PD1 cells; antibody 0.14 nM
T2 construct: whole, on cells
Experimental: (§1) 500 μL of PBSA was added, and the mixture was centrifuged at 5600 rpm for 5 min to remove the supernatant. […] The system was mixed gently and uniformly, and then was incubated on ice for 1 h. Then 500 μL of PBSA was added, and the mixture was centrifuged at 5600 rpm for 5 min to remove the supernatant. […] 500 μL of PBSA was added, and the mixture was centrifuged at 5600 rpm for 5 min to remove the supernatant. At last, 200 μL of PBSA was added to resuspend cell precipitates, and the mixture was transferred to a flow tube for FACSCalibur detection.

[2] = molecular target: T2, PD-1 on 293T-PD1 cell surface; assay: flow cytometry, 293T-PD1 cells; antibody 3.70 nM
Experimental: as §1

[3] = molecular target: T2, PD-1 on 293T-PD1 cell surface; assay: flow cytometry, 293T-PD1 cells; antibody 33.33 nM
Experimental: as §1

[4] = molecular target: T2, PD-1 on 293T-PD1 cell surface; assay: flow cytometry, 293T-PD1 cells; antibody 1.23 nM
Experimental: as §1

[5] = molecular target: T2, PD-1 on 293T-PD1 cell surface; assay: flow cytometry, 293T-PD1 cells
Experimental: as §1

PD-1-mFc [6] = molecular target: T3, PD-1-mFc (human, UniProt Q15116 25-170, limits assumed); assay: BLI (Fortebio), antibody on AHC sensor, PD-1-mFc 0.6-50 nM, 37 C
T3 construct: also called human PD-1-mFc
Experimental: The sample dilution buffer was PBST, 0.1% BSA, pH 7.4. The antibody was immobilized on an AHC sensor at a concentration of 5 μg/mL with an immobilization height of about 0.4 nm. The sensor was equilibrated in a buffer for 60 s, and the binding of the immobilized antibody on the sensor to the antigen PD-1-mFc at concentrations of 0.6-50 nM (three-fold dilution) was determined in 120 s. The protein was dissociated in the buffer for 180 s. The detection temperature was 37° C., the detection frequency was 0.3 Hz, and the sample plate shaking rate was 1000 rpm. The data were analyzed by 1:1 model fitting to obtain affinity constants.

[7] = molecular target: T2, PD-1 on 293T-PD1 cell surface; assay: flow cytometry, 293T-PD1 cells; antibody 100.00 nM
Experimental: as §1

PD-1-mFc [8] = molecular target: T3, PD-1-mFc; assay: ELISA, PD-1-mFc coated
Experimental: A microplate was coated with PD-1-mFc at 0.5 μg/mL and incubated at 4° C. overnight. Then the microplate coated with antigens was washed once with PBST, and then blocked with a PBS solution containing 1% BSA as blocking solution at 37° C. for 2 h. After blocking, the microplate was washed 3 times with PBST. The microplate containing the test antibodies was incubated at 37° C. for 30 min, and then washed 3 times with PBST. […] After incubation, the plate was washed 4 times with PBST, TMB (Neogen, 308177) was added in the dark for chromogenesis for 5 min, and then a stop solution was added to terminate chromogenic reaction. The microplate was put into a microplate reader immediately, and the OD value of each well in the microplate was read at 450 nm. The data were analyzed and processed by SoftMax Pro 6.2.1,

[9] = molecular target: T2, PD-1 on 293T-PD1 cell surface; assay: flow cytometry, 293T-PD1 cells; antibody 0.05 nM
Experimental: as §1

[10] = molecular target: T2, PD-1 on 293T-PD1 cell surface; assay: flow cytometry, 293T-PD1 cells; antibody 0.41 nM
Experimental: as §1

human PD-1-mFc-biotin [11] = molecular target: T4, human PD-1-mFc-biotin (human, UniProt Q15116 25-170, limits assumed, biotin label, site not stated); assay: competitive ELISA, competitor coated PD-L1-mFc; antibody 5 ug/mL diluted 1:3
Experimental: (§2) After incubation, the microplate was blocked with a PBS solution containing 1% BSA at 37° C. for 2 h. After blocking, the plate was washed three times and dried. The antibody was serially diluted to 7 concentrations in a gradient ratio of 1:3 on a dilution plate with 10 μg/mL as the starting concentration, and a blank control was set. […] Then the mixture after reaction was added to the coated microplate, and the microplate was incubated for at 37° C. for 30 min. After incubation, the plate was washed three times with PBST and dried. SA-HRP (KPL, 14-30-00) working solution was added, and the plate was incubated at 37° C. for 30 min. After incubation, the plate was washed four times and patted dry. Then TMB (Neogen, 308177) was added in the dark for chromogenesis for 5 min, and a stop solution was added to terminate chromogenic reaction. Then the microplate was put into a microplate reader immediately, and the OD value of each well in the microplate was read at 450 nm. The data were analyzed and processed by SoftMax Pro 6.2.1.

human NT5E-Biotin = molecular target: T1, human NT5E-Biotin; assay: ELISA, NT5E-biotin on streptavidin
Experimental: A microplate was coated with streptavidin at 2 μg/mL and then incubated at 4° C. overnight. After incubation, the microplate coated with streptavidin was washed once with PBST, and blocked with a PBS solution containing 1% BSA as a microplate blocking solution at 37° C. for 2 h. After blocking, the microplate was washed 3 times with PBST. Then, 0.5 μg/mL antigen human NTSE-Biotin was added and incubated at 37° C. for 30 min. Then, the plate was washed 3 times with PBST. The antibodies serially diluted with PBST solution (the dilution gradients for the antibody are shown in Table 3) were added to wells of the microplate. The microplate containing the test antibodies was incubated at 37° C. for 30 min, and then washed 3 times with PBST. […] After incubation, the plate was washed 4 times with PBST, TMB (Neogen, 308177) was added in the dark for chromogenesis for 5 min, and then a stop solution was added to terminate chromogenic reaction. The microplate was put into a microplate reader immediately, and the OD value of each well in the microplate was read at 450 nm. The data were analyzed and processed by SoftMax Pro 6.2.1.

human PD-1-mFc-biotin [12] = molecular target: T4, human PD-1-mFc-biotin; assay: competitive ELISA, blocking of PD-1-mFc-biotin binding to coated PD-L1-mFc
Experimental: as §2

[13] = molecular target: T2, PD-1 on 293T-PD1 cell surface; assay: flow cytometry, 293T-PD1 cells; antibody 11.11 nM
Experimental: as §1

T2 sequence (Q15116 25-288): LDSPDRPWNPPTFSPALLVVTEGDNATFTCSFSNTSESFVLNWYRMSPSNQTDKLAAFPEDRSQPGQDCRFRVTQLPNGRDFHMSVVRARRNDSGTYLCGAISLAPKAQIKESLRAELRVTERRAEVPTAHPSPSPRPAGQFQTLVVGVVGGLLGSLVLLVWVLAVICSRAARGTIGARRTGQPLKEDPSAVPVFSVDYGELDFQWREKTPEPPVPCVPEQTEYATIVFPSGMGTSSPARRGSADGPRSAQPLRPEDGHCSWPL
T3 sequence (Q15116 other isoform, or with tags, fused parts or gaps limits assumed): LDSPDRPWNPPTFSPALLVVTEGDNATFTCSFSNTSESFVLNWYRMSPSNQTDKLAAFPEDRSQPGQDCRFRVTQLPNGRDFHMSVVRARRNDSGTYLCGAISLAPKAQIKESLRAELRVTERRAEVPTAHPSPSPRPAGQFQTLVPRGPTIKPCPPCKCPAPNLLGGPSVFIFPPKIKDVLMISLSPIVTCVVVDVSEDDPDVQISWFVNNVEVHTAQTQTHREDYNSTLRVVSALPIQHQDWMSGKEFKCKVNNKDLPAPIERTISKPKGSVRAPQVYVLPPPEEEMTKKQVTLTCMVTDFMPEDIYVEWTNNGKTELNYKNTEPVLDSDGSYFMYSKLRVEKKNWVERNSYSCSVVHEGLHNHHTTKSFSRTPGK
T4 sequence (Q15116 other isoform, or with tags, fused parts or gaps limits assumed): as above

Binder | FACS signal [1] | FACS signal [2] | FACS signal [3] | FACS signal [4] | EC50 [5] | Kd (PD-1-mFc [6]) | FACS signal [7] | EC50 (PD-1-mFc [8]) | FACS signal [9] | FACS signal [10] | OD450 (human PD-1-mFc-biotin [11]) | EC50 (human NT5E-Biotin) | EC50 (human PD-1-mFc-biotin [12]) | FACS signal [13]
14C12H1L1 (antibody, human IgG1, kappa, Humanized anti-PD-1 IgG1/kappa) heavy: not shown light: DIQMTQSPSSMSASVGDRVTFTCRASQDINTYLSWFQQKPGKSPKTLIYRANRLVSGVPSRFSGSGSGQDYTLTISSLQPEDMATYYCLQYDEFPLTFGAGTKLELKRTVAAPSVFIFPPSDEQLKSGTASVVCLLNNFYPREAKVQWKVDNALQSGNSQESVTEQDSKDSTYSLSSTLTLSKADYEKHKVYACEVTHQGLSSPVTKSFNRGEC | 57.7 | 975 | 1170 | 438 | 2110 pM | 164 pM | 1500 | 33 pM | 35.7 | 129 | – | – | – | –
P1D7V02R (bispecific antibody, human IgG1, kappa, Morrison form IgG-scFv) heavy: not shown light: DIQMTQSPSSMSASVGDRVTFTCRASQDINTYLSWFQQKPGKSPKTLIYRANRLVSGVPSRFSGSGSGQDYTLTISSLQPEDMATYYCLQYDEFPLTFGAGTKLELKRTVAAPSVFIFPPSDEQLKSGTASVVCLLNNFYPREAKVQWKVDNALQSGNSQESVTEQDSKDSTYSLSSTLTLSKADYEKHKVYACEVTHQGLSSPVTKSFNRGEC | 43 | 404 | 405 | 218 | 1080 pM | – | 301 | 78 pM | 23.4 | 108 | 0.051 OD | 230 pM | 1330 pM | 426
